Data as given in the supplement of paper PMC10065799, “High-throughput profiling of sequence recognition by tyrosine kinases and SH2 domains using bacterial peptide display” (eLife, 2023).

Tests used:
MERTK = MERTK (UniProt Q12866); assay: phosphorylation enrichment, bacterial display (enrichment ratio); higher = better substrate or ligand; peptides without Tyr show the background
FGFR3 = FGFR3 (UniProt P22607); assay: as above
AncSZ = assay: as above
Jak2 = Jak2 (UniProt O60674); assay: as above
Chain of Jak2 (O60674 whole entry, looked up): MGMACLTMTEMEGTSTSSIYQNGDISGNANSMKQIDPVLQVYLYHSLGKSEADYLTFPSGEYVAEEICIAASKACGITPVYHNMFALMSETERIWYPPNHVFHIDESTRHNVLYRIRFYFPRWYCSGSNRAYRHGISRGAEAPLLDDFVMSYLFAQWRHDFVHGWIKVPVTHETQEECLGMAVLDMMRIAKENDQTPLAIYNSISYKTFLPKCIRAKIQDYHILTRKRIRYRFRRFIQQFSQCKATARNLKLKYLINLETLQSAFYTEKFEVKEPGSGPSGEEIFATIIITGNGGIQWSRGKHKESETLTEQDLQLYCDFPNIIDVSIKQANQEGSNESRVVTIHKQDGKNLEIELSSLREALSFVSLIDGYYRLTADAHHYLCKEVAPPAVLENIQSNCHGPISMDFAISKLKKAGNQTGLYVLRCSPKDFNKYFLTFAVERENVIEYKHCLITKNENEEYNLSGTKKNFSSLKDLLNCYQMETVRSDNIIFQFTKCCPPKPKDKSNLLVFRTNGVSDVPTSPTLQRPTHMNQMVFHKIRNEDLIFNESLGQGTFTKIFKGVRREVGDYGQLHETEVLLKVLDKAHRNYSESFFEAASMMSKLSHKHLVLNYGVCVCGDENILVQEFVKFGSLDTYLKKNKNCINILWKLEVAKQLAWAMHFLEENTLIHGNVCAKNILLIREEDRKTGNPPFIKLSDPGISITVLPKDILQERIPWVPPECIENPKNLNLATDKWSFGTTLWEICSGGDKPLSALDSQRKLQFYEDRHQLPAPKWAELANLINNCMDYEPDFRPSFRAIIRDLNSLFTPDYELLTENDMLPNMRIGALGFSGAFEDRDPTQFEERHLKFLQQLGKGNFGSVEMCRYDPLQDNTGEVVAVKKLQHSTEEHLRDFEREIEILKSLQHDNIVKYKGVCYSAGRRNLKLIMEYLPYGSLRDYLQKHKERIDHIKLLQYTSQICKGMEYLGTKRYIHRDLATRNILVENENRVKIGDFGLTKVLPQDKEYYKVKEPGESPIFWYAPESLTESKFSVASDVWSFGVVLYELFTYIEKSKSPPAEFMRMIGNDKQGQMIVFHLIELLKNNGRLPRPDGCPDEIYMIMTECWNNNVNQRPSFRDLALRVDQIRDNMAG

Hck = Hck (UniProt P08631); assay: as above
EPHB1 = EPHB1 (UniProt P54762); assay: as above
Chain of EPHB1 (P54762 whole entry, looked up): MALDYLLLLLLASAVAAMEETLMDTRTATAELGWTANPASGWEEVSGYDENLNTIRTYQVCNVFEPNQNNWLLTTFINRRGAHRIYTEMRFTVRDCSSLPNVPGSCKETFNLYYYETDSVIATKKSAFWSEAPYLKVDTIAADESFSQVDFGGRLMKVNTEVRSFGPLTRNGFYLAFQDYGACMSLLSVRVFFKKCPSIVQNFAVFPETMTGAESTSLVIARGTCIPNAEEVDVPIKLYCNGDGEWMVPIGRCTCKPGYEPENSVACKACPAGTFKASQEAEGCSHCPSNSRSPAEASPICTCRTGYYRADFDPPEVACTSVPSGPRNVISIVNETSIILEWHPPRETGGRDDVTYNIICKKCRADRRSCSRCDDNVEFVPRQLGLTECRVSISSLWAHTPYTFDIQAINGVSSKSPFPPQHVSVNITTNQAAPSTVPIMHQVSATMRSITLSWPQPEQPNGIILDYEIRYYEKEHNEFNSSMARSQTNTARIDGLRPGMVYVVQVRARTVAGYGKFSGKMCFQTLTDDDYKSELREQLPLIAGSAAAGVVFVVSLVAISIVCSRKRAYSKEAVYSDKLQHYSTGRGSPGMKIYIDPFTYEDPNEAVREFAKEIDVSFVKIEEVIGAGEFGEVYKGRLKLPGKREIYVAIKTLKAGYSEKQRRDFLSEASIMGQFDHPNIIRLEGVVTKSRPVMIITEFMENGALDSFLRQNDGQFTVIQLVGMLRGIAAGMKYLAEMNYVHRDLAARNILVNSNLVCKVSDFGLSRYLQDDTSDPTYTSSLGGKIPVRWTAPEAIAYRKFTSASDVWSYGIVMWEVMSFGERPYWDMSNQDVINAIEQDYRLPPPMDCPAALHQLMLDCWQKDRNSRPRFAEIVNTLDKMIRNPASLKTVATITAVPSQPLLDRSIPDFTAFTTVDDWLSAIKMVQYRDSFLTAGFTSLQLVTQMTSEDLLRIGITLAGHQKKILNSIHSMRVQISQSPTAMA

Fes = Fes (UniProt P07332); assay: as above
Chain of Fes (P07332 whole entry, looked up): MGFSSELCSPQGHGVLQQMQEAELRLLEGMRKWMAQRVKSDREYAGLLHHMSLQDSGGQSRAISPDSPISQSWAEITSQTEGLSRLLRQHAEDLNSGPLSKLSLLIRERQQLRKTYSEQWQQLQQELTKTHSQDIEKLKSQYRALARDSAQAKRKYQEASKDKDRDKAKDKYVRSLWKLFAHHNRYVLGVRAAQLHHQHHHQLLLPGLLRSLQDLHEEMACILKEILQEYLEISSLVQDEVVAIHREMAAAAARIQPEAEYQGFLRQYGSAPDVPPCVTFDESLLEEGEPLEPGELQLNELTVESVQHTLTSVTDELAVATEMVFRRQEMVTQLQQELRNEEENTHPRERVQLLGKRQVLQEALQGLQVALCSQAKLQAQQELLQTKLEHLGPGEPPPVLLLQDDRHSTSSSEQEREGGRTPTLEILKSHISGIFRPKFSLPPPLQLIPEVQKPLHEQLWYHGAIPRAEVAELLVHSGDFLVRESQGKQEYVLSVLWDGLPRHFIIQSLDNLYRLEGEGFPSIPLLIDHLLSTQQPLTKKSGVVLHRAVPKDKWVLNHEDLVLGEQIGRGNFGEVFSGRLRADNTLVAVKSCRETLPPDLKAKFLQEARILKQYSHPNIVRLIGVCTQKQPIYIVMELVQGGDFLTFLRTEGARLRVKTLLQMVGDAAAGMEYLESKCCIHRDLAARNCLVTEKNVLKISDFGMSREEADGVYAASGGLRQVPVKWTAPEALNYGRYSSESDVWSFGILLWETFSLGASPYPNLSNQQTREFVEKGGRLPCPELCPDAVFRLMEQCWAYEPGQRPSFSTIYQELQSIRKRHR

c-Abl (mouse) = assay: as above
EPHB2 = EPHB2 (UniProt P29323); assay: as above
FGFR1 = FGFR1 (UniProt P11362); assay: as above
Chain of FGFR1 (P11362 whole entry, looked up): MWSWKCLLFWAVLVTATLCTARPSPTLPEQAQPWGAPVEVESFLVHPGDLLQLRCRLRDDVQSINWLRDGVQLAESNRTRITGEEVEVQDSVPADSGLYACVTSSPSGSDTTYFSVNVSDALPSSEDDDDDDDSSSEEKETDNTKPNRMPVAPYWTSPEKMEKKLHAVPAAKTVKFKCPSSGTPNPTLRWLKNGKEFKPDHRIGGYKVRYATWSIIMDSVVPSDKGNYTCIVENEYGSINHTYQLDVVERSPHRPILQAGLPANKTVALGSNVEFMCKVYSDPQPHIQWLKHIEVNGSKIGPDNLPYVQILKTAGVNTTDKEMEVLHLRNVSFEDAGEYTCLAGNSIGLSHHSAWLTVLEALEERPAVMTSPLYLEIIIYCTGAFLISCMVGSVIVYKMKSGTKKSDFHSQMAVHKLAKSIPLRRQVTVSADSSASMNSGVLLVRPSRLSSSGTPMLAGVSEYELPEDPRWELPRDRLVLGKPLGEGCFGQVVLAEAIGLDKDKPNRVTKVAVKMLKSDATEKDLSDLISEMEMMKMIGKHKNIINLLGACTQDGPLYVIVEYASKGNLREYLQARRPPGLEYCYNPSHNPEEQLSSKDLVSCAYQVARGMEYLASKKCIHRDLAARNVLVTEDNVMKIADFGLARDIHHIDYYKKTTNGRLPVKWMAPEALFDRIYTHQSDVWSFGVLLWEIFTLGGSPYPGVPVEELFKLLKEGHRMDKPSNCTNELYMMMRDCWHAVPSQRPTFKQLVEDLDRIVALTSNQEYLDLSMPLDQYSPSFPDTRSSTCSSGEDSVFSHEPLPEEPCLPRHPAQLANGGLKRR

c-Src = assay: as above
Fer (mouse) = assay: as above
Fyn = Fyn (UniProt P06241); assay: as above
Chain of Fyn (P06241 whole entry, looked up): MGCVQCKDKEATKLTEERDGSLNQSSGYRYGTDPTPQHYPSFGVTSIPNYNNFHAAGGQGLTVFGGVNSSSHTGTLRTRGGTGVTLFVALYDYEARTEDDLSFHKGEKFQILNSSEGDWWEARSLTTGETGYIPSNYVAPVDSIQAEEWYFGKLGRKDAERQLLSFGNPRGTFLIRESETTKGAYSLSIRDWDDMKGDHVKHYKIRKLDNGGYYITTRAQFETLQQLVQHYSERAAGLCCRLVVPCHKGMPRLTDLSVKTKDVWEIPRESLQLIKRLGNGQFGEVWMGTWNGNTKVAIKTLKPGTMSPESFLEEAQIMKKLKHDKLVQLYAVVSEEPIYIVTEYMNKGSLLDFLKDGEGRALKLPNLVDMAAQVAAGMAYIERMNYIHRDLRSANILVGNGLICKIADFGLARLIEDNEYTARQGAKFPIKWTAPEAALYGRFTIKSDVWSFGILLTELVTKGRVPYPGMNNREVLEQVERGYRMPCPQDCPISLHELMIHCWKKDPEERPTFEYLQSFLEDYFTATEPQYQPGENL

Grb2 SH2 = Grb2 SH2 (UniProt P62993); assay: SH2 binding enrichment of the phosphorylated peptide, bacterial display (enrichment ratio); higher = better substrate or ligand; peptides without Tyr show the background
c-Src SH2 = assay: as above
SHP2-C SH2 = assay: as above
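For SH2 binding enrichment of the phosphorylated peptide, bacterial display in this document: peptide library displayed on the E. coli surface as eCPX fusions, selected cells deep-sequenced, score is each peptide's frequency after selection divided by its frequency in the input.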
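For phosphorylation enrichment, bacterial display in this document: 11-residue human phosphosite peptides and single-mutation variants displayed on the E. coli surface, counted by deep sequencing, each peptide's frequency after selection divided by its frequency in the unselected input library; frequency after pTyr selection over input frequency; kinase dosed for 20-30% of maximal phosphorylation in three min.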

Chain of FGFR3 (P22607 whole entry, looked up): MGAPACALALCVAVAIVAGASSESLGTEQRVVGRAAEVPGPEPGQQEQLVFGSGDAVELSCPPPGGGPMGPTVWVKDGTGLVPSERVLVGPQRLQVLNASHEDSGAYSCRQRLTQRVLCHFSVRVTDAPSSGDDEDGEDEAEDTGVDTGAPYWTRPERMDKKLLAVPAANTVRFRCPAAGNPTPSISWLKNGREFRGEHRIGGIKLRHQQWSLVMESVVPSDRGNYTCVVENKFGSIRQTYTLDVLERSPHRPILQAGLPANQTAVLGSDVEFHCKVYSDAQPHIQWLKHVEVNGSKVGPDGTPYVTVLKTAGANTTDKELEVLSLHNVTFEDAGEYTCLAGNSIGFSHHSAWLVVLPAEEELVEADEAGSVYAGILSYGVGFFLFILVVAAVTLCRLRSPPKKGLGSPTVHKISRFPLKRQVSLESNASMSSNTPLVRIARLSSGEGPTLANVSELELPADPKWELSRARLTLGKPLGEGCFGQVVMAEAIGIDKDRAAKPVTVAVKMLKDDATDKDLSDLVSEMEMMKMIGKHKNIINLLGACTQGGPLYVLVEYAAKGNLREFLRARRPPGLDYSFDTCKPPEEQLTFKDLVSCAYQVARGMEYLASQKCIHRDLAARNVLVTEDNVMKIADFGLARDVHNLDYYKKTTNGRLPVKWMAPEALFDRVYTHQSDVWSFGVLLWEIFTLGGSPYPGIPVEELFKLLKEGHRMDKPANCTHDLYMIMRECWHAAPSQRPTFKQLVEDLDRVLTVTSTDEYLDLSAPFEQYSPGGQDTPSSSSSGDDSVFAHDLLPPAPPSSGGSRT

Sequence | phosphorylation enrichment (MERTK) | phosphorylation enrichment (FGFR3) | phosphorylation enrichment (AncSZ) | phosphorylation enrichment (Jak2) | phosphorylation enrichment (Hck) | phosphorylation enrichment (EPHB1) | phosphorylation enrichment (Fes) | phosphorylation enrichment (c-Abl (mouse)) | phosphorylation enrichment (EPHB2) | phosphorylation enrichment (FGFR1) | phosphorylation enrichment (c-Src) | phosphorylation enrichment (Fer (mouse)) | phosphorylation enrichment (Fyn) | SH2 binding enrichment (Grb2 SH2) | SH2 binding enrichment (c-Src SH2) | SH2 binding enrichment (SHP2-C SH2)
TFEFRYLEDQD [CNOT3_Y746_R750Q_YF] | 0.643 | 0.903 | 1.89 | 1.92 | 0.622 | 0.646 | 1.44 | 0.997 | 0.44 | 0.497 | 0.597 | 0.438 | 0.506 | 0.908 | 0.602 | 0.865
TRSYDYMEGGD [FGF7_Y58] | 0.45 | 0.731 | 1.02 | 0.802 | 0.488 | 0.58 | 1.03 | 0.586 | 0.593 | 0.486 | 0.447 | 0.456 | 0.458 | 0.871 | 6.41 | 0.538
DVLEFCNSKKT [PAK1_Y131_Y131C] | 0.433 | 0.581 | 0.83 | 0.806 | 0.401 | 0.459 | 0.861 | 0.532 | 0.483 | 0.428 | 0.535 | 0.436 | 0.423 | 1 | 0.403 | 0.693
EGGFAYVPLKD [PRIM2_Y208_D204G] | 0.371 | 0.497 | 1.19 | 1.12 | 0.404 | 0.466 | 1.05 | 0.699 | 0.567 | 0.399 | 0.419 | 0.379 | 0.369 | 0.637 | 0.468 | 0.436
FCRHNYGVVES [HLA-DRB1_Y112_YF] | 0.44 | 0.661 | 0.569 | 0.632 | 0.526 | 1.32 | 0.843 | 0.545 | 2.62 | 0.587 | 0.446 | 0.555 | 0.503 | 1.19 | 1.86 | 1.05
KDAGDYKCKAK [LRIT3_Y326] | 0.332 | 0.517 | 0.542 | 0.579 | 0.55 | 0.408 | 0.618 | 0.654 | 0.312 | 0.448 | 0.384 | 0.312 | 0.386 | 1.4 | 0.83 | 0.767
KHCEDYVFSYN [DSC1_Y846_C848F] | 0.489 | 1.98 | 2.06 | 1.08 | 0.521 | 0.855 | 1.31 | 0.778 | 0.719 | 2.41 | 1.77 | 0.511 | 0.576 | 0.806 | 0.552 | 0.595
LIGRGYDDPEV [HSPA9_Y128_R127G] | 0.602 | 0.894 | 1.54 | 0.868 | 0.931 | 0.695 | 1.88 | 0.756 | 0.802 | 0.828 | 0.567 | 0.669 | 0.975 | 0.772 | 2.39 | 0.635
QGLMPYGQPRP [SRRT_Y798] | 0.596 | 0.527 | 0.853 | 0.601 | 0.563 | 0.568 | 0.863 | 0.725 | 0.513 | 0.696 | 0.883 | 0.424 | 0.488 | 0.955 | 0.357 | 0.653
IRRSSYEDSSL [HNF4A_Y144_T139I] | 0.485 | 0.487 | 0.705 | 0.65 | 0.53 | 0.444 | 0.758 | 0.824 | 0.543 | 0.411 | 0.591 | 0.526 | 0.481 | 0.749 | 0.47 | 0.588
DVFLKHLNFAT [PDE6B_Y212_Y212H] | 0.466 | 0.66 | 0.785 | 0.799 | 0.478 | 0.547 | 0.914 | 0.552 | 0.545 | 0.483 | 0.374 | 0.414 | 0.507 | 0.842 | 0.52 | 0.884
EEGNPYFSSAR [MCCC2_Y520_YF] | 0.462 | 0.648 | 1.01 | 0.818 | 0.638 | 0.446 | 0.966 | 0.796 | 0.623 | 0.461 | 1.15 | 0.43 | 0.61 | 0.769 | 0.51 | 0.627
LFNQDYPIHSV [GATM_Y227_YF] | 0.796 | 2 | 2.31 | 0.707 | 1.07 | 1.46 | 2.09 | 0.984 | 0.787 | 3.19 | 0.81 | 1.24 | 1.01 | 1.21 | 0.432 | 0.725
HEEKVYLSRGD [CRACR2A_Y141] | 0.611 | 1.17 | 0.884 | 0.784 | 0.885 | 0.541 | 1.05 | 0.826 | 0.526 | 0.672 | 1.08 | 0.569 | 0.995 | 0.812 | 0.366 | 0.495
RLPINYTTRRI [LAMA2_Y2894_G2889R] | 0.663 | 0.839 | 0.873 | 0.547 | 0.534 | 0.433 | 0.602 | 0.638 | 0.519 | 0.743 | 0.626 | 0.289 | 0.35 | 0.76 | 0.471 | 0.636
KKFPDYIQSAM [SGMS2_Y59_I62S_YF] | 0.364 | 0.471 | 0.621 | 0.512 | 0.482 | 0.348 | 0.65 | 0.472 | 0.424 | 0.479 | 0.521 | 0.332 | 0.401 | 0.821 | 0.532 | 0.694
ILGRYYERGSI [PAX5_Y73_T75R] | 0.408 | 0.552 | 0.449 | 0.563 | 0.495 | 0.493 | 0.726 | 0.519 | 0.531 | 0.466 | 0.401 | 0.474 | 0.498 | 0.889 | 0.84 | 0.671

Sequence | phosphorylation enrichment (MERTK) | phosphorylation enrichment (FGFR3) | phosphorylation enrichment (AncSZ) | phosphorylation enrichment (Jak2) | phosphorylation enrichment (Hck) | phosphorylation enrichment (EPHB1) | phosphorylation enrichment (Fes) | phosphorylation enrichment (c-Abl (mouse)) | phosphorylation enrichment (EPHB2) | phosphorylation enrichment (FGFR1) | phosphorylation enrichment (c-Src) | phosphorylation enrichment (Fer (mouse)) | phosphorylation enrichment (Fyn) | SH2 binding enrichment (Grb2 SH2) | SH2 binding enrichment (c-Src SH2) | SH2 binding enrichment (SHP2-C SH2)
EAAFVYVISSA [WNT4_Y113_A114V] | 0.477 | 1.09 | 1.32 | 1.33 | 0.65 | 0.684 | 1.45 | 0.847 | 0.656 | 0.496 | 0.631 | 0.561 | 0.606 | 0.735 | 0.39 | 0.76
IAINKYEVSLI [MYO7A_Y2136_G2137E] | 0.371 | 0.635 | 0.89 | 0.851 | 0.493 | 0.505 | 0.99 | 0.598 | 0.562 | 0.445 | 0.451 | 0.486 | 0.514 | 0.805 | 0.59 | 0.981
IIEDPYYGNDS [ACP1_Y132] | 0.522 | 0.869 | 1.46 | 1.33 | 0.918 | 0.561 | 1.22 | 0.849 | 0.623 | 0.851 | 2.73 | 0.632 | 0.958 | 0.88 | 0.837 | 0.492
DLNATYCTIQG [U2SURP_Y634_R635C] | 2.36 | 0.954 | 1.31 | 0.845 | 7.17 | 7.15 | 1.07 | 0.78 | 5.72 | 1.06 | 5.32 | 1 | 9.64 | 0.982 | 1.2 | 0.7
DDKEFYSVHNK [MET_Y1235_Y1230D_YF] | 0.422 | 0.571 | 0.882 | 0.854 | 0.453 | 0.488 | 0.99 | 0.828 | 0.527 | 0.525 | 0.531 | 0.47 | 0.413 | 0.831 | 0.486 | 0.621
IIRRLYLKWHP [SACS_Y4333] | 0.612 | 0.596 | 1.04 | 0.819 | 0.497 | 0.508 | 0.904 | 0.721 | 0.543 | 0.474 | 0.571 | 0.453 | 0.535 | 0.768 | 0.34 | 0.568
QMQLKYSQSDL [SMC1A_Y714_R711Q] | 0.69 | 0.735 | 0.973 | 0.569 | 0.655 | 0.68 | 1.32 | 0.885 | 0.494 | 0.829 | 0.457 | 0.621 | 0.654 | 0.529 | 0.283 | 0.534
SVVVCYEPPEV [TP53_Y220_P219C] | 0.457 | 0.78 | 1.78 | 1.07 | 0.616 | 0.751 | 1.19 | 0.849 | 0.697 | 0.509 | 0.518 | 0.678 | 0.573 | 0.814 | 0.584 | 0.656
SLGSPYEQPPR [PDLIM4_Y137_G138E] | 0.581 | 0.565 | 0.909 | 0.673 | 0.619 | 0.487 | 0.757 | 0.747 | 0.493 | 0.46 | 0.547 | 0.474 | 0.495 | 0.887 | 1.05 | 1
VDGFVYKLHPS [GCK_Y413_S411F] | 0.288 | 0.55 | 0.844 | 0.999 | 0.419 | 0.434 | 0.962 | 0.562 | 0.484 | 0.407 | 0.643 | 0.368 | 0.53 | 0.693 | 0.519 | 0.55
ALVDTYCRHNF [HLA-DRB1_Y107_A103L_YF] | 0.549 | 0.682 | 0.782 | 0.847 | 0.577 | 0.55 | 0.935 | 0.683 | 0.613 | 0.472 | 0.538 | 0.588 | 0.454 | 0.991 | 0.711 | 0.845
HFPFQYHRQLF [F12_Y53_YF] | 0.507 | 0.694 | 0.924 | 0.669 | 0.52 | 0.618 | 0.78 | 1.44 | 0.585 | 0.555 | 0.546 | 0.538 | 0.466 | 1.67 | 1.14 | 1.14
ALETLYKKAVK [CC2D2A_Y381_E376A] | 0.338 | 0.475 | 0.559 | 0.603 | 0.396 | 0.348 | 0.864 | 0.463 | 0.366 | 0.405 | 0.307 | 0.446 | 0.342 | 0.889 | 0.511 | 0.599
ESMLRYEVYGG [STOX1_Y607] | 0.506 | 0.702 | 1.29 | 1.3 | 0.712 | 0.758 | 1.42 | 0.744 | 0.685 | 0.528 | 0.905 | 0.523 | 0.666 | 0.819 | 0.929 | 0.554
TVDASYYGGRG [ANTXR2_Y380] | 0.495 | 0.561 | 0.512 | 0.609 | 1.14 | 0.411 | 0.66 | 0.576 | 0.503 | 0.546 | 0.642 | 0.559 | 0.73 | 0.763 | 0.604 | 0.424
DFTSRYLNASD [PKHD1_Y828] | 0.511 | 0.572 | 0.797 | 0.616 | 0.47 | 0.46 | 0.893 | 0.512 | 0.407 | 0.469 | 0.43 | 0.45 | 0.468 | 1.25 | 0.633 | 0.779
